# Measurements as given in publication PMC11758712.
# Experiments:
# [1] = target: Abdala (SARS-CoV-2 spike receptor-binding domain vaccine antigen produced in Pichia pastoris) (SARS-CoV-2 (Wuhan-Hu-1)) (UniProt P0DTC2); assay: mass photometry
# [2] = target: monomeric ACE2 (a.a 19-611), C-terminally His-tagged (human) (UniProt Q9BYF1); assay: mass photometry
# Chain of monomeric ACE2 (a.a 19-611), C-terminally His-tagged (human) (Q9BYF1 19-611): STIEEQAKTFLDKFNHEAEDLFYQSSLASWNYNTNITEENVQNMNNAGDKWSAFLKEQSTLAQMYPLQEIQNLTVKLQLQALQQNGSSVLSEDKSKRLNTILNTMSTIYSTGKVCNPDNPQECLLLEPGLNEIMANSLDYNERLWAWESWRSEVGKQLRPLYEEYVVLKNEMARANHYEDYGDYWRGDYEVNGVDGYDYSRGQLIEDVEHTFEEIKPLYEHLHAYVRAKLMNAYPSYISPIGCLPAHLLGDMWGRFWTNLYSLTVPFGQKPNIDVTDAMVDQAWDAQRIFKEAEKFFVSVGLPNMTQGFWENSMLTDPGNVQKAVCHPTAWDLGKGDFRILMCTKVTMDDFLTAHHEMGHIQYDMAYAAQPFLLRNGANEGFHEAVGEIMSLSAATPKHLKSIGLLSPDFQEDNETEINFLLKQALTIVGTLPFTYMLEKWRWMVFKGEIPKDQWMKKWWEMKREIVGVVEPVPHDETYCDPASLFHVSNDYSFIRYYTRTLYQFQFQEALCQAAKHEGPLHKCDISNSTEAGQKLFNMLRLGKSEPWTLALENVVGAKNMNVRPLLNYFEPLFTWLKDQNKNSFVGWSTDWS
substance,measurement,setting,value
Abdala (SARS-CoV-2 spike receptor-binding domain vaccine antigen produced in Pichia pastoris) (from UniProt P0DTC2 319-541) (domain or fragment),percent dimeric species,[1],5.6%
same,stoichiometry N,[1],2
same,Kd,[2],55.5 nM
